Positions count from the first letter of the chain named.
Tests used:
[1] = target: T1, BRCA2MBD;MEILB2 K26E;BRME1MBD K26E (Mus musculus;Mus musculus;Mus musculus) (UniProt P97929+Q9D4G2+Q6DIA7); assay: EMSA; details: EMSA: 20 mM HEPES pH 7.5, 325 mM KCl, 60 min room temperature; 0.4% agarose, 0.5x TBE pH 8.0, 4 C; 50 uM DNA per bp/base (qualitative). Pulldown: 20 mM HEPES …
T1 sequence 1: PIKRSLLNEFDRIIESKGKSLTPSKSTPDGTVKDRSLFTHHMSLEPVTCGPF
T1 sequence 2: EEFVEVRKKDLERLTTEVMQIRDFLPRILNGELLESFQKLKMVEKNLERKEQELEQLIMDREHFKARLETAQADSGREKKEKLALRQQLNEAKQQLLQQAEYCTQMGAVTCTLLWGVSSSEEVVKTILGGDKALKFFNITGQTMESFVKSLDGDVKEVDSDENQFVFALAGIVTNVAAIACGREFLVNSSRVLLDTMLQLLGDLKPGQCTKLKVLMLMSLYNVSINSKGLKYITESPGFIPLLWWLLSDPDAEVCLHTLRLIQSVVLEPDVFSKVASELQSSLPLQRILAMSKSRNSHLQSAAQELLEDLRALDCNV
T1 sequence 3: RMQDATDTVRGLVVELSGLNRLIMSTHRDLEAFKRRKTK

[2] = target: T2, BRCA2MBD;MEILB2 (22-338);BRME1MBD (Mus musculus;Mus musculus;Mus musculus) (UniProt P97929+Q9D4G2+Q6DIA7); assay: EMSA; details: EMSA: 20 mM HEPES pH 7.5, 325 mM KCl, 60 min room temperature; 0.4% agarose, 0.5x TBE pH 8.0, 4 C; 50 uM DNA per bp/base (qualitative). Pulldown: 20 mM HEPES …
T2 sequence 1: T1 sequence 1
T2 sequence 2: T1 sequence 2 with E5K
T2 sequence 3: T1 sequence 3

[3] = target: T3, BRCA2MBD;MEILB2 (22-338);BRME1MBD (Mus musculus;Mus musculus;Mus musculus, UniProt P97929;Q9D4G2;Q6DIA7 2232-2283;22-338;540-578, ||); assay: EMSA; apparent Kd, Hill n = 4; 2:4:4 complex; 50 nM DNA; EMSA: 20 mM HEPES pH 7.5, 325 mM KCl, 60 min room temperature; 0.4% agarose, 0.5x TBE pH 8.0, 4 C; 50 uM DNA per bp/base (qualitative). Pulldown: 20 mM HEPES pH 7.5, 150 mM KCl, 10% glycerol, room temperature; details: protein: recombinant;recombinant;recombinant, tags: MBP tag, TEV-cleaved;His6-MBP tag, chain copies: 2;4;4, label: FAM, blunt
T3 sequence 1: T1 sequence 1
T3 sequence 2: T1 sequence 2 with E5K
T3 sequence 3: T1 sequence 3

MEILB2 (22-338);BRME1MBD [4] = target: T4, MEILB2 (22-338);BRME1MBD (Mus musculus;Mus musculus, UniProt Q9D4G2;Q6DIA7 22-338;540-578, |); assay: EMSA; apparent Kd, Hill n = 3; 2:2 complex concentration; 50 nM DNA; EMSA: 20 mM HEPES pH 7.5, 325 mM KCl, 60 min room temperature; 0.4% agarose, 0.5x TBE pH 8.0, 4 C; 50 uM DNA per bp/base (qualitative). Pulldown: 20 mM HEPES pH 7.5, 150 mM KCl, 10% glycerol, room temperature; details: protein: recombinant;recombinant, tags: His6-MBP tag, TEV-cleaved;His6 tag, chain copies: 2;2, label: FAM, blunt
T4 sequence 1: T1 sequence 2 with E5K
T4 sequence 2: T1 sequence 3

[5] = target: T5, MEILB2 (22-338);BRME1MBD R540E R549E (Mus musculus;Mus musculus, UniProt Q9D4G2;Q6DIA7 22-338;540-578, |R540E;R549E); assay: pull-down; 150 mM KCl; EMSA: 20 mM HEPES pH 7.5, 325 mM KCl, 60 min room temperature; 0.4% agarose, 0.5x TBE pH 8.0, 4 C; 50 uM DNA per bp/base (qualitative). Pulldown: 20 mM HEPES pH 7.5, 150 mM KCl, 10% glycerol, room temperature; details: protein: recombinant;recombinant, tags: His6-MBP tag, TEV-cleaved;His6 tag, chain copies: 2;2, blunt
T5 sequence 1: T1 sequence 2 with E5K
T5 sequence 2: T1 sequence 3 with R1E, R10E

[6] = target: T6, BRCA2MBD;MEILB2 K26E;BRME1MBD (Mus musculus;Mus musculus;Mus musculus, UniProt P97929;Q9D4G2;Q6DIA7 2232-2283;22-338;540-578, |K26E|); assay: EMSA; EMSA: 20 mM HEPES pH 7.5, 325 mM KCl, 60 min room temperature; 0.4% agarose, 0.5x TBE pH 8.0, 4 C; 50 uM DNA per bp/base (qualitative). Pulldown: 20 mM HEPES pH 7.5, 150 mM KCl, 10% glycerol, room temperature; details: protein: recombinant;recombinant;recombinant, tags: MBP tag, TEV-cleaved;His6-MBP tag, chain copies: 2;4;4, blunt
T6 sequence 1: T1 sequence 1
T6 sequence 2: T1 sequence 2
T6 sequence 3: T1 sequence 3

[7] = target: T3, BRCA2MBD;MEILB2 (22-338);BRME1MBD; assay: as above; details: protein: recombinant;recombinant;recombinant, tags: MBP tag, TEV-cleaved;His6-MBP tag
MEILB2 (22-338);BRME1MBD [8] = target: T4, MEILB2 (22-338);BRME1MBD; assay: as above; details: protein: recombinant;recombinant, tags: His6-MBP tag, TEV-cleaved;His6 tag, chain copies: 2;2, hairpin with 3' poly(dT) overhang
MEILB2 (22-338);BRME1MBD [9] = target: T4, MEILB2 (22-338);BRME1MBD; assay: EMSA; apparent Kd, Hill n = 2; 2:2 complex concentration; 100 nM DNA; EMSA: 20 mM HEPES pH 7.5, 325 mM KCl, 60 min room temperature; 0.4% agarose, 0.5x TBE pH 8.0, 4 C; 50 uM DNA per bp/base (qualitative). Pulldown: 20 mM HEPES pH 7.5, 150 mM KCl, 10% glycerol, room temperature; details: protein: recombinant;recombinant, tags: His6-MBP tag, TEV-cleaved;His6 tag, chain copies: 2;2, label: 5'-FAM

ATGGAATCTAAAGAAGAATTTGTTAAAGTCAGAAAGAAGGACCTGGAACGGCTGACGACGGAAGTGATGCAAATACGGGACTTCTTACCCAGAATACTAAATGGGGAGTTACTGGAAAGTTTCCAGAAATTAAAGATGGTAGAAAAAAACCTGGAAAGAAAAGAACAAGAATTAGAGCAACTGATAATGGACCGTGAACACTTCAAAGCCCGGCTAGAAACTGCACAGGCAGACAGTGGGAGGGAGAAGAAGGAGAAGTTGGCTCTTCGACAGCAGCTGAATGAGGCAAAACAGCAGCTC (double strand) [FAM-300 bp dsDNA]
Kd [1]: 300 nM
Kd [2]: 310 nM

B1: FAM-75 bp dsDNA (dsDNA)
DNA 1: ATGGAATCTAAAGAAGAATTTGTTAAAGTCAGAAAGAAGGACCTGGAACGGCTGACGACGGAAGTGATGCAAATA
DNA 2: TATTTGCATCACTTCCGTCGTCAGCCGTTCCAGGTCCTTCTTTCTGACTTTAACAAATTCTTCTTTAGATTCCAT
Kd [3]: 400 ± 40 nM
Kd (MEILB2 (22-338);BRME1MBD [4]): 520 ± 60 nM

B2: biotin-75 bp dsDNA (dsDNA)
DNA 1: B1 DNA 1
DNA 2: B1 DNA 2
binding result [5]: no binding

B3: 75 bp dsDNA (dsDNA)
DNA 1: B1 DNA 1
DNA 2: B1 DNA 2
binding result [6]: no binding

B4: ssDNA-dsDNA junction (5' hairpin-poly(dT) 3') (structured_DNA)
DNA: CCGGCCCGCGGTGTCCGCGGGCCGGTTTTTTTTTTTTTTTTTTTTTTTTTTTTTTTTTTTTTTTTTTTTTTTTTT
binding result ([7]; chain copies: 2;4;4, hairpin with 3' poly(dT) overhang): binds
binding result (MEILB2 (22-338);BRME1MBD [8]): binds

B5: 75 base FAM-poly(dT) (ssDNA)
DNA: TTTTTTTTTTTTTTTTTTTTTTTTTTTTTTTTTTTTTTTTTTTTTTTTTTTTTTTTTTTTTTTTTTTTTTTTTTT
Kd (MEILB2 (22-338);BRME1MBD [9]): 870 ± 70 nM
binding result ([7]; chain copies: 2;4;4, label: 5'-FAM): binds
